Substitutions are numbered along the chain they refer to. In names and notes the source's numbering stands.
B1: Photozipper variant E159K (domain or fragment)
chain: GSISSELTEAQKVERRERNREHAKRSRVRKKFLLESLQQSVNELNHKNNSLKESIREHLGPRGDSLIAQSSPEADTLLTDNPSKANRILEDPDYSLVKALQMAQQNFVITDASLPDNPIVYASRGFLTLTGYSLDQILGRNCRFLQGPETDPRAVDKIRNAITKGVDTSVCLLNYRQDGTTFWNLFFVAGLRDSKGNIVNYVGVQSKVSEDYAKLLVNEQNIEYKGVRTSNMLRRK
B2: Photozipper variant E159R/K164R (domain or fragment)
chain: B1 chain with K47R, K52R
B3: Photozipper variant K164E (domain or fragment)
chain: B1 chain with K47E, K52E

Biological target: the molecule itself
Assay: SEC

| Protein | stoichiometry N |
| --- | --- |
| B1 | 2 |
| B2 | 2 |
| B3 | 2 |
